Test results as given in patent publication US20250361314A1 (SHANGHAI HUAOTA BIOPHARMACEUTICAL, published 2025).
Each block holds one binder with its values, some of them ahead of it.

Key:
Human CD39 antigen = target: T1, Human CD39 antigen (human, UniProt P49961 38-478); assay: SPR (Biacore 8K), antibody captured on anti-human capture CM5 chip, antigen as analyte, 1:1 model
T1 construct: Antigen used as analyte in SPR; also called ENTPD1
T1 sequence (looked up): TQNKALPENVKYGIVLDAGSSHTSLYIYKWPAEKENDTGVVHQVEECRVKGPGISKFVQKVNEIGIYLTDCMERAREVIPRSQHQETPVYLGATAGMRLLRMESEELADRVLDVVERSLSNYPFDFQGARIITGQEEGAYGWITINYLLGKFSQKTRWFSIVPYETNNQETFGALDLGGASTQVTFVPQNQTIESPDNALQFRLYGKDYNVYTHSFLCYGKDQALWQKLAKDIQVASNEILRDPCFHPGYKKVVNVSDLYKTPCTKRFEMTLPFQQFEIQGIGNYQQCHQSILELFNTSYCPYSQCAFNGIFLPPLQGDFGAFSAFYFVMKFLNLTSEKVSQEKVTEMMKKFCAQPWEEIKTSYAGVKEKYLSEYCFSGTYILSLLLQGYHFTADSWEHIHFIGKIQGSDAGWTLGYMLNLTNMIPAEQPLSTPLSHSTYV
Procedure: (§1) An Anti-Human Capture-CM5 chip (GE, #BR-1005-30) was prepared using coupling methods of a Human Antibody Capture Kit (GE, #BR-1008-39) and an amino coupling kit (GE, BR-1000-50). The chip was equilibrated at room temperature for 20-30 mins and loaded into a Biacore 8K instrument. The antigen and antibody were diluted to an experimental working concentration using an equilibration buffer. The antigens were diluted with the equilibrium buffer to 50 nM, and then diluted three-fold for seven concentration gradients, and two zero concentrations (i.e., the equilibrium buffer) and one repeat concentration (typically the lowest concentration repeat) were set. Experimental analysis was performed on 10 antigen concentrations (2 zero concentrations, 7 gradient concentrations, and 1 repeated concentration) in a cyclic manner according to an order of antibody, antigen, and regeneration. The antigen injection flow rate was 30 μL/min, the binding time was 120 s, and the dissociation time was 600 s. Following the analysis, the data was analyzed using the corresponding analysis program to confirm that there was no obvious reference binding. Using Kinetics and a 1:1 binding model, the data was fit to obtain the kinetic related parameters Ka, Kd, and KD values of the bispecific antibodies and parental control antibodies.

Human CD73 antigen = target: T2, Human CD73 antigen (human, UniProt P21589 27-547, limits assumed); assay: as above
T2 construct: Antigen used as analyte in SPR; also called NT5E
T2 sequence (looked up): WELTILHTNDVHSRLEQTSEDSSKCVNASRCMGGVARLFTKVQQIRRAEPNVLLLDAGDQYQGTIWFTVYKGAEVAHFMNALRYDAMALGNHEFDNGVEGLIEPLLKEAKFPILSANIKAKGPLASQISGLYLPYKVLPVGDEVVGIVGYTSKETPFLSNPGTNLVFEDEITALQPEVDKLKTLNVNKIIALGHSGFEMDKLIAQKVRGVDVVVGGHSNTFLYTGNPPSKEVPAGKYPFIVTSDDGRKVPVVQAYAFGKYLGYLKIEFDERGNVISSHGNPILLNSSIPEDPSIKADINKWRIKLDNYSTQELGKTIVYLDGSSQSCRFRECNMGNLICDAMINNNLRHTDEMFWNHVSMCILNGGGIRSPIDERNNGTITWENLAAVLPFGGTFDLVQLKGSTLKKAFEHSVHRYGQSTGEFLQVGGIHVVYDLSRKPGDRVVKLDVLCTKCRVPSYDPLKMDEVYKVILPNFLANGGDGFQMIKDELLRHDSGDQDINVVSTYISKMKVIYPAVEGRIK
Procedure: as §1

[1] = target: T3, Human CD39 on CHOK1-huCD39-10B6 cells overexpressing CD39 (human, UniProt P49961 1-510); assay: cell-based or functional assay
T3 sequence (looked up): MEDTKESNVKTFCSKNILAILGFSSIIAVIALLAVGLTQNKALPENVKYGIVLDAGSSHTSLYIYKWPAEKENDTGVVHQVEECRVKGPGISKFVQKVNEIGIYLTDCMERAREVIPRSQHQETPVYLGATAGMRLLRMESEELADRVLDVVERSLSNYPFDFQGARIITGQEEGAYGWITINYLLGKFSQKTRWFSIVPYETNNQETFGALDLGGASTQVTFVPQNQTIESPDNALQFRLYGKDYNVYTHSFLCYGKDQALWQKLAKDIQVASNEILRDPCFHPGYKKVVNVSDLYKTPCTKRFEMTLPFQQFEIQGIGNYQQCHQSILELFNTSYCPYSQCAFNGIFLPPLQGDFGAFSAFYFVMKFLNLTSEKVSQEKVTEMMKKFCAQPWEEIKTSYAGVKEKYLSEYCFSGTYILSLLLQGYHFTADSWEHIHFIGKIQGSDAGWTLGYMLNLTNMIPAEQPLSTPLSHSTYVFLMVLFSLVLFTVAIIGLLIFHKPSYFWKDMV

B1: CD39/CD73 bispecific antibody 700035 (CD39-VHH-CD73-IgG) (bispecific antibody)
heavy: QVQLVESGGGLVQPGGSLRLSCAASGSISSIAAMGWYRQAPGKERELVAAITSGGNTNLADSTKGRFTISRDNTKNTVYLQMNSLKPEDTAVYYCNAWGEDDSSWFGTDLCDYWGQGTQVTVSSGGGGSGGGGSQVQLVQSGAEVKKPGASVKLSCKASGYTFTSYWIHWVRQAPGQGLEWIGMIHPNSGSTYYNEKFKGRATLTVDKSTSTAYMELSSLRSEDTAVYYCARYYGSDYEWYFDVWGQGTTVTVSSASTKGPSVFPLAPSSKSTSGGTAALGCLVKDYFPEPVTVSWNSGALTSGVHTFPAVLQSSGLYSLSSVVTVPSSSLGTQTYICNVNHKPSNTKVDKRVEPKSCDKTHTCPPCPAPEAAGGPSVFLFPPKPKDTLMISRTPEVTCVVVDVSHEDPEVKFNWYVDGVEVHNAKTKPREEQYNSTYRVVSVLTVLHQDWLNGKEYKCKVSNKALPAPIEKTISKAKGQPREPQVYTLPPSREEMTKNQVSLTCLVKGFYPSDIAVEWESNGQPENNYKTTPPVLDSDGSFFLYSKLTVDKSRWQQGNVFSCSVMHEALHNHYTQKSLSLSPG
light: DIQMTQSPSSMSASVGDRVTITCKASQNVRTAVVWYQQKPGKAPKALIYLASNRHTGVPDRFSGSGSGTDFTLTISSLQPEDFATYFCLQHWNYPYTFGQGTKLEIKRTVAAPSVFIFPPSDEQLKSGTASVVCLLNNFYPREAKVQWKVDNALQSGNSQESVTEQDSKDSTYSLSSTLTLSKADYEKHKVYACEVTHQGLSSPVTKSFNRGEC
Kd (Human CD39 antigen): 0.0708 nM
koff (Human CD39 antigen): 9.28e-05 s⁻¹
kon (Human CD39 antigen): 1.31e+06 M⁻¹ s⁻¹
Kd (Human CD73 antigen): 0.341 nM
koff (Human CD73 antigen): 0.000319 s⁻¹
kon (Human CD73 antigen): 935000 M⁻¹ s⁻¹
EC50 (µg/mL), inhibition of CD39 ATPase activity on CHOK1-huCD39-10B6 cells (CellTiter Glo) [1]: 0.208 µg/mL

Kd (Human CD39 antigen): 0.0918 nM
koff (Human CD39 antigen): 9.54e-05 s⁻¹
kon (Human CD39 antigen): 1.04e+06 M⁻¹ s⁻¹
Kd (Human CD73 antigen): 0.425 nM
koff (Human CD73 antigen): 0.000249 s⁻¹
kon (Human CD73 antigen): 587000 M⁻¹ s⁻¹
EC50 (µg/mL), inhibition of CD39 ATPase activity on CHOK1-huCD39-10B6 cells (CellTiter Glo) [1]: 0.187 µg/mL
B2: CD39/CD73 bispecific antibody 700038 (CD39-VHH-CD73-IgG) (bispecific antibody)
heavy: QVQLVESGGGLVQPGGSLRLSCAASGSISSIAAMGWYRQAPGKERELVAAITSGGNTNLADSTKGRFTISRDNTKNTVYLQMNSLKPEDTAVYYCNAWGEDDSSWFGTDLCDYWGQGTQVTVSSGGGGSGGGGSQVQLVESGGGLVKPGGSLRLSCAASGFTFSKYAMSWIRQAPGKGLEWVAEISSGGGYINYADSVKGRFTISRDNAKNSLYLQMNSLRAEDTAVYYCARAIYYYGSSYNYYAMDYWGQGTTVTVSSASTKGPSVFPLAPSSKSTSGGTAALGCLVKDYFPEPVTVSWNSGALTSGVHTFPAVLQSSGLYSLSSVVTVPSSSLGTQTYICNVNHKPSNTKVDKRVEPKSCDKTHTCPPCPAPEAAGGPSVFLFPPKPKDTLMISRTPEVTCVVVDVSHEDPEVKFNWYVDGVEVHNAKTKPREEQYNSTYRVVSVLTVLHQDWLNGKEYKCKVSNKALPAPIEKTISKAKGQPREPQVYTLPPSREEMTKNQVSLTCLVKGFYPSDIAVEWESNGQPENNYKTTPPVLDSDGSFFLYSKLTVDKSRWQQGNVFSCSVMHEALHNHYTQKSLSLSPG
light: DIQMTQSPSSLSASVGDRVTITCRASQDVGTAEAWYQQKPGKAPKLLIYWASTRHTGVPSRFSGSGSGTDFTLTISSLQPEDFATYYCQQYSSYPLTFGQGTKLEIKRTVAAPSVFIFPPSDEQLKSGTASVVCLLNNFYPREAKVQWKVDNALQSGNSQESVTEQDSKDSTYSLSSTLTLSKADYEKHKVYACEVTHQGLSSPVTKSFNRGEC
